Measured values taken from patent US20220175977A1 (SORICIMED BIOPHARMA, published 2022).
Where no end group is shown, it is not given here.

T1: TRPV6 (endogenous, in human cancer cell lines, tumour tissue and plasma) (human, UniProt Q9H1D0 1-765)
T1 construct: whole, on cells; also called Transient Receptor Potential Vanilloid 6; TRPV6 channel
T1 sequence (looked up): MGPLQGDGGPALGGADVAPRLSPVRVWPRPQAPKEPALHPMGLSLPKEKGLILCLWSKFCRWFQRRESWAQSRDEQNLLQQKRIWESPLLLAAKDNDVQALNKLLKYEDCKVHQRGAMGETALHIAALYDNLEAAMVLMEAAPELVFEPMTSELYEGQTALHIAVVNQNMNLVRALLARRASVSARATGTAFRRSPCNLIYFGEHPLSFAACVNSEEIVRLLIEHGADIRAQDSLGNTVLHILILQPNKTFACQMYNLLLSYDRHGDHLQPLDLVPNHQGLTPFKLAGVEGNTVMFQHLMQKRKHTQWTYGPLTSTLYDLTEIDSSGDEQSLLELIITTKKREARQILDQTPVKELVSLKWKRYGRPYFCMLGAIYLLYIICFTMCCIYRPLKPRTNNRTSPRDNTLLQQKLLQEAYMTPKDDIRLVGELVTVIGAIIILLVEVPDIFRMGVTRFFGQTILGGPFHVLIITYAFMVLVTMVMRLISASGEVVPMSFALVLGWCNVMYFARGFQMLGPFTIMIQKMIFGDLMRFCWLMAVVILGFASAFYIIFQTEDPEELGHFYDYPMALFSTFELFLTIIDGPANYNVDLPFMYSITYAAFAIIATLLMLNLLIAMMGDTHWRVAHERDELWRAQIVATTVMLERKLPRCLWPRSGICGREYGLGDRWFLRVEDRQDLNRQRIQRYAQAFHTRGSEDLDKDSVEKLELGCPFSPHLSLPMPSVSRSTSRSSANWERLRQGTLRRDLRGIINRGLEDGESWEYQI


What was measured:
[1] = molecular target: T1, TRPV6 (endogenous, in human cancer cell …); experiment: fluorescence microscopy, SKOV-3 cells, not transfected (FIG. 9 A1-A3)
[2] = molecular target: T1, TRPV6 (endogenous, in human cancer cell …); experiment: LNCaP model; method not described

Binder | binding result [1] | Kd [2]
EGKLSSNDTEGGLC(Cy5.5)KEFLHPSKVDLPR (also called SorC27-Cy5.5 compound; fluorescently labeled SorC27) [SorC27-cy5.5] | binds | 
KEFLHPSKVDLPR [SorC13] |  | 100 nM
EGKLSSNDTEGGLCKEFLHPSKVDLPR [SorC27] |  | 140 nM
